Measured values from PMC9684555, “Structure- and computational-aided engineering of an oxidase to produce isoeugenol from a lignin-derived compound” (Nature Communications, 2022).

What was measured:
COc1cc(CO)ccc1O = system: T1, COc1cc(CO)ccc1O; assay: purified protein; format: biochemical, Rhodococcus jostii; conditions: 50 mM KPi pH 7.5, O2 co-substrate, 0.05 µM enzyme
T1 construct: full length, 526 residues, C-terminal His6 tag (pBAD-EUGO-His6x), E. coli NEB10beta; covalent FAD; homodimer; mutants for crystals from His-SUMO fusion, tag cleaved

CCCc1ccc(O)c(OC)c1 = system: T2, CCCc1ccc(O)c(OC)c1; assay: purified protein; format: biochemical, Rhodococcus jostii; conditions: 50 mM KPi pH 7.5, 10% v/v DMSO, 10 µM to 1 mM substrate, O2 co-substrate
T2 construct: full length, 526 residues, C-terminal His6 tag (pBAD-EUGO-His6x), E. coli NEB10beta; covalent FAD; homodimer; mutants for crystals from His-SUMO fusion, tag cleaved

| Substance | Km (COc1cc(CO)ccc1O) [µM] | kcat (COc1cc(CO)ccc1O) [s⁻¹] | Km (CCCc1ccc(O)c(OC)c1; 100 nM enzyme) [µM] | kcat (CCCc1ccc(O)c(OC)c1; 100 nM enzyme) [s⁻¹] | Km (CCCc1ccc(O)c(OC)c1; 1.0 µM enzyme) [µM] | kcat (CCCc1ccc(O)c(OC)c1; 1.0 µM enzyme) [s⁻¹] |
| --- | --- | --- | --- | --- | --- | --- |
| EUGO (eugenol oxidase) (Rhodococcus jostii RHA1; A423M/D151E/H434Y/I445D/Q425S/S394V/S518P/S81H) | 94.9 ± 7.8 | 2.8 ± 0.07 | 7.4 ± 0.4 | 0.43 ± 0.007 |  |  |
| EUGO (eugenol oxidase) (Rhodococcus jostii RHA1; A423M/D151E/H434Y/I445D/S394V/S518P/S81H) | 2.9 ± 0.2 | 0.15 ± 0.002 |  |  | 3.0 ± 0.2 | 0.08 ± 0.002 |
| EUGO (eugenol oxidase) (Rhodococcus jostii RHA1; A423M/H434Y/I445D/S394V/S518P/S81H) | 7.1 ± 0.6 | 0.075 ± 0.001 |  |  | 3.4 ± 0.4 | 0.028 ± 0.0003 |
| EUGO (eugenol oxidase) (Rhodococcus jostii RHA1; A423M/H434Y/I445D/S518P/S81H) | 177.6 ± 15.8 | 4.8 ± 0.2 |  |  |  |  |
